Source: article PMC5913134, “The IL-33-PIN1-IRAK-M axis is critical for type 2 immunity in IL-33-induced allergic airway inflammation” (Nature Communications, 2018)

Tested on: IRAK1
Assay: In vitro phosphorylation by IRAK1 immunoprecipitated from IL-33 stimulated cells
Assay type: biochemical
Conditions: IRAK1 IPed from IL-33 stimulated cells, γP32 ATP, autoradiography
Excerpt: Suppl em enta ry Figur e 2.
Supplementary Figure 2. IRAK-M DD structure modeling analysis and phosphorylation by IRAK1.
(a) Overlaid 1H-15N HSQC spectra of the 15N-labeled Pin1 WW domain showing changes in chemical environment resulting from titration with the phosphorylated IRAK-M peptide. Overlaid spectra of apo (red) and increasing amounts of ligand (rainbow of colors, with purple as highest ligand concentration) show progressive peak shifts. (b) Interaction between IRAK-M DD and IRAK1 DD from Figure 3f. Cyan: IRAK1 DDs, Yellow: IRAK-M DD. (c) The aromatic residues interaction between IRAK-M DD and IRAK4 DD from Figure 3f. Green: IRAK4 DDs, Yellow: IRAK-M DD. (d) IRAK-M or its mutants as described, were expressed in 293 cells or 293 IRAK1null cells expressing the ST2 receptor and treated with IL-33. The phosphorylation is shown by the slow migrating bands. (e) WT or Pin KO cells were treated with IL-33 and IRAK1 phosphorylation was monitored at different time after stimulation. (f) DC2.4 cells were either treated or not with IL-33. IRAK1 was IP’d and incubated with GST-IRAK-M aa1-120 in the presence of ΓP32ATP.
The beads were washed and GST-IRAK-M was eluted and run for autoradiography. […]

B1: GST-IRAK-M: purified GST-IRAK-M containing amino acids 1-120 (protein, UniProt Q8K4B2 1-120, looked up, fragment)
chain: MAGRCGARGALSPQLLLFDLPPALLGELCGILDSCDGPLGWRGLAERLSNSWLDVRHIEKYVNQGKSGTRELLWSWAQKNKTIGDLLEVLQDMGHQRAIHLIINYGVSWTPSVQTHHELP
modifications: GST tag
For B1, the “phosphorylation by IRAK1” value was “phosphorylated WT IRAK-M”.
